Assay results taken from patent US9611296B2, “Peptides that bind to amino-truncated amyloid-beta-peptide and use of said peptides” (FORSCHUNGSZENTRUM JUELICH GMBH, priority 2012, dated 2017).
Square brackets hold non-standard residues; d marks the D form. Ends that are not written are not given here.

Target: T1, Aβ plaques (Homo sapiens, UniProt P05067)
T1 construct: have an increased Aβ 1-42 expression and plaque formation; from tissue; host or cells: frontal brain slices of transgenic Tg2576 mice aged 10 to 11 months
Test: Ex vivo histological staining of plaques in frontal brain slices of transgenic Tg2576 mice with FITC-labelled D-peptides (fluorescence microscopy, Congo red control)
Type: binding
Conditions: frontal brain slices (cortex) of Tg2576 mice aged 10 to 11 months; for region of the plaques stained (more intensely): FITC-labelled peptide
Text: The binding properties of the available peptides to Aβ plaques were investigated. For staining frontal brain slices, use was made of preparations of transgenic Tg2576 mice aged from 10 to 11 months, which due to the human APP gene bearing the Swedish mutation have an increased Aβ 1-42 expression and plaque formation. In these mice, it was also possible to detect AβpE3-x as a plaque constituent.
For the tests, the peptides were synthetically produced and labelled by a commercial supplier, A test was then carried out, ex vivo, to determine the regions of the plaques to which binding had mainly taken place. It must be assumed here that Aβ plaques consist of different Aβ species, such as, for example, Aβ1-40, 1-42 and AβpE3-x.
All the peptides are combined with fluorescein isothiocyanate (FITC) for detection by means of fluorescence microscopy.
As a further control, the same tests were carried out after Congo red staining, which served to verify the plaque structures (bottom image in each case). It must be assumed that the plaques are composed of different Aβ isoforms (Aβ 1-40, 1-42, AβpE3-x). Slices from wild-type animals without plaque formation were also treated. In these tests, no Congo red or fluorescein fluorescence could be detected (data not shown).

T1 sequence (P05067 672-713 limits assumed): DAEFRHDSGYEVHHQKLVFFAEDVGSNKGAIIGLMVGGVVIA

NGAPNKIPRDRE ([dN]G[dA][dP][dN][dK][dI][dP][dR][dD][dR][dE]) [D5, dodecameric D-peptide selected by mirror image phage display against aggregation-nucleus-free AβpE3-x]
region of the plaques stained (more intensely): ring-shaped structures around the inner core of the plaques were stained more intensely
type of plaques stained by the peptide: only plaques having a relatively dense structure, consisting of Aβ fibrils, were stained, but not small and diffuse plaques

KMEHPNHPPPQR ([dK][dM][dE][dH][dP][dN][dH][dP][dP][dP][dQ][dR]) [D4, dodecameric D-peptide selected by mirror image phage display against aggregation-nucleus-free AβpE3-x]
region of the plaques stained (more intensely): ring-shaped structures around the inner core of the plaques were stained more intensely
type of plaques stained by the peptide: only plaques having a relatively dense structure, consisting of Aβ fibrils, were stained, but not small and diffuse plaques

AGERLKFIDEHV ([dA]G[dE][dR][dL][dK][dF][dI][dD][dE][dH][dV]) [D6]
region of the plaques stained (more intensely): ring-shaped structures around the inner core of the plaques were stained more intensely
type of plaques stained by the peptide: only plaques having a relatively dense structure, consisting of Aβ fibrils, were stained, but not small and diffuse plaques

HTRFEYYVYHMS ([dH][dT][dR][dF][dE][dY][dY][dV][dY][dH][dM][dS]) [D7]
region of the plaques stained (more intensely): at the inner core of the plaques
type of plaques stained by the peptide: stained only dense structures
